Measured values reported in the nanobody polyreactivity screen of Harvey et al. (2022).

Assay: yeast display, Sf9 membrane polyspecificity reagent, FACS + sequencing; frameworks hold sequencing errors
Outline: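 Synthetic nanobody libraries on Saccharomyces cerevisiae BJ5465 were galactose-induced for 36–48 hours, stained 1 hour at 4 °C with 10% biotinylated, detergent-solubilized Sf9 membrane reagent and enriched on streptavidin microbeads. FACS then separated cells into low and high (top ~1%) gates by anti-HA (expression) and streptavidin (reagent binding) fluorescence. Genes were colony-PCR amplified, MiSeq 2 × 250 sequenced and CDR-length filtered. A clone's polyreactivity label is that of its gate of origin.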

Sequence	polyreactivity (PSR sort gate)
QVQLVESGGGLVQAGGSLRLSCAASGSIFWGNAMGWYRQAPGKERELVATISWSAGSTYYADSVKGRFTISRDNAMNTVYLQMNSLKPDDTAVYYCATDVRHSTLYYYWGQGTQVTVSS	low polyreactivity
QVQLVESGGGLVQAGGSLRLSCAASGSIFWGYAMGWYRQAPGKERELVATIRNRGGSTYYADSVKGRFTISRDNAKNTVYLQMNSLKPEDTAVYYCAARFPHRHYLLYTYDYWGQGTQVTVSS	low polyreactivity
QVQLVESGGGLVQAGGSLRLSCAASGSIFWKYAMGWYRQAPGKERELVAAISRSSSTTYYADSVKGRFTISRDNAKNTVYLQMNSLKPEDTAVYYCAADWRTKGYDSLGQGTQVTVSS	high polyreactivity
QVQLVESGGGLVQAGGSLRLSCAASGSIFWLYAMGCYRQAPGKERELVAGISQNGGSTTYADSVKGRFTISRDNAKNTVYFQMNSLKPEDTAVYYCAAKRYGPFKYGYWGQGTQVTVSS	high polyreactivity
QVQLVESGGGLVQAGGSLRLSCAASGSIFWLYAMGWYRQAPGKERELVAAIDSGDSTKYADSVKGRFTISRDNAKTTVYLQMNSLKPEDTAVYYCNASRRYHVRAPYDYWGQGTQVTLSS	low polyreactivity
QVQLVESGGGLVQAGGSLRLSCAASGSIFWLYAMGWYRQAPGKERELVAAITWSGGRTYYADSVKGRFTISRDTAKNTVYLQMNSLKPEDTAVYYCARRQWPWYSNPARGGKYDYWGQGTQVTVSS	low polyreactivity
QVQLVESGGGLVQAGGSLRLSCAASGSIFWNNAMGWYRQAPGKERELVAAISKSGTRTYYADSVKGRFTISRDNAKNTFYLQMNSLKPEDTAVYYCAKDPYGRLQPRPRFGYWGQGTQVTVSS	high polyreactivity
QVQLVESGGGLVQAGGSLRLSCAASGSIFWNYAMGWYRQAPGKERELVASITSGGSTNYADSVKGRFTISRDNEKNTVYLQMNSLKQEDTAVYSCNTDDDSSYTGYYSWGQGTQVTVSS	low polyreactivity
QVQLVESGGGLVQAGGSLRLSCAASGSIFWPNAMGWYRQAPGKERELVASITRAGSTNYADSVKGRFTISRDNAQNTVYLQMNSLKPEDTAVYYCAAYFWGGYNYWGQGTQVTVSS	low polyreactivity
QVQLVESGGGLVQAGGSLRLSCAASGSIFWPNVMGWYRQAPGKDRELVAAIRSDGSTYYADSVKGRFTISRDNAKNTVYLQMNSLKPEDAAVYYCATKFFRQTIYRAKYNYWGQGTQVTVSS	low polyreactivity
QVQLVESGGGLVQAGGSLRLSCAASGSIFWPYAKGWYRQAPGKERELVAAISSSGTSTYYADSVKGRFTISRDNAKNTVYLQMNSLKPEDTAVYYCAKELFTYPYEYWGQGTQVTVSS	low polyreactivity
QVQLVESGGGLVQAGGSLRLSCAASGSIFWQNTMGWYRQAPGKERELVAAISWSGGRTYYADSVKGRFTISRDNAKNTVYLQMNSLKPEDTAVYYCAAAFSPGWWSRHTYDYDYWGQGTQVTVSS	high polyreactivity
QVQLVESGGGLVQAGGSLRLSCAASGSIFWRNAMGWYRQAPGKERELVAAISRVGSTNYADSVKGRFTISRDNAKNTVYLQMNSLKPQDTAVYYCAVDGGEFSSYGYWGQGTQVTVSS	low polyreactivity
QVQLVESGGGLVQAGGSLRLSCAASGSIFWRNMGWYRQAPGKERELVAAISYGSVSTYYADSVKGRFTISRDNAKNTVYLQMNSLKPEDTAVYYCAATLPGWYNEHDSWGLGTQVTVSS	low polyreactivity
QVQLVESGGGLVQAGGSLRLSCAASGSIFWRYAMGRYRQAPGKEREVVAAISGSGVRTSYADSVKGRFTISRDNAKNTVYLQMNSLKAEDTAVYYCATDIRSGRYYWGQGTQVTVSS	high polyreactivity
QVQLVESGGGLVQAGGSLRLSCAASGSIFWRYAMGWYRQAPGKERELVAAINYSTTRTYYADSVKGRFTISLDNAKNTVYLQMNSLKPEDTAVYYCAADSRVDEGEYWGQGTQVTVSS	high polyreactivity
QVQLVESGGGLVQAGGSLRLSCAASGSIFWSYAMGWYRQAPGKERELVAAITRSGGSTYYADSVKGRFTISRDNAKNTVYLQINSLKPEDTAVDYCNAATPYSWGYRRGYWGQGTQVTVSS	high polyreactivity
QVQLVESGGGLVQAGGSLRLSCAASGSIFWSYAMGWYRQAPGKERELVADSVKGRFTISRDNAKNTVYLQMNSLKPEDTAVYYCAADSPSAPVYLYDYWGQGTQVTVSS	low polyreactivity
QVQLVESGGGLVQAGGSLRLSCAASGSIFWSYAMGWYRQAPGKERELVASISRSTGRTRYADSVKGRFTISRDNAKNTVYLQMNSLKPEDTAVYYCAATRRAGFTTAKFDYWGQGTQVTVSS	high polyreactivity
QVQLVESGGGLVQAGGSLRLSCAASGSIFWTNAMGWYRQAPGKERELVAAIRVSTGSTYYADSVKGRFTISRDIAKNNVYLQMNSLKPEDTAVYYCNADLYIYEWYPALHSNDYWGQGTQVTVSS	low polyreactivity
QVQLVESGGGLVQAGGSLRLSCAASGSIFWVNAMGWYRQAPGKERELVAAITWSAGSTYYADSVKGRFTISRDNAKNTVYLQMNSLKPEDTAVYYCAAGGAWYYWTLDYWGQGTQVTVSS	low polyreactivity

Sequence	polyreactivity (PSR sort gate)
QVQLVESGGGLVQAGGSLRLSCAASGSIFWVYAMGWYRQAPGKERELVAAISSGGSTNYADSVKGRFTISRDNAKNTVYLQMNSLKPEDTAVYYCAAVIRTVRERYGFWGQGTQVTVSS	high polyreactivity
QVQLVESGGGLVQAGGSLRLSCAASGSIFWVYAMGWYRQAPGKERELVAVIDWSGDSTYYADSVKGRFTISRDNAKNTVYLQMNSLKPEDTAVYYCSAEVYVDYTGYSYFDYPYDYWGQGTQVTVSS	low polyreactivity
QVQLVESGGGLVQAGGSLRLSCAASGSIFWVYVLGWYRQAPGKERELVAAITNGGSTDYADSVKGRFTISRDNAKNTVYLQMNSLKPEDTAVYYCAKRSTIWGRILITYDYWGQGTQVTVSS	low polyreactivity
QVQLVESGGGLVQAGGSLRLSCAASGSIFWYNAMGWYRQAPGKERELVAAIRWRGGSTYYADSVKGRFTISRDNAKNTVYLQMNSLKPEDTAVYDCAAQVYVSQLYTSYYYWGQGTQVTVSS	high polyreactivity
QVQLVESGGGLVQAGGSLRLSCAASGSIFWYNTMGWYRQAPGKERELVAAISSSGGTTYYADSVKGRFTISRDNAKNTVYLQMNSLKPEDTAVYYCAATVGDAYYEYDYWGQGTQVTVSS	low polyreactivity
QVQLVESGGGLVQAGGSLRLSCAASGSIFWYNTMGWYRQAPGKERELVASISWDGGTYYADSVKGRFTISRDNAKNTVYLQMNSLKPEDTAVYYCNVAWYWGYDYWGQGTQVTVSS	low polyreactivity
QVQLVESGGGLVQAGGSLRLSCAASGSIFWYYAMGWSRQAPGKERELVASISSSGGSTYYADSVKGRFTISRDNAKNTVYLQMNSLKPEDTAVYYCAVRSPYRLSRWRVGYWGQGTQVTVSS	high polyreactivity
QVQLVESGGGLVQAGGSLRLSCAASGSIFWYYAMGWYRQAPGKERELDASITRGGSTKYADSVKGRFTISLDNAKNPVYLQMNSLKPEDTAVYYCATTYRLYRVNYDYYWGQGTQVSVSS	high polyreactivity
QVQLVESGGGLVQAGGSLRLSCAASGSIFYANAMGWYRQAPGKERELVAAISRSGGRTYYADSVKGRFTISRDNSKNTVYLQMNSLKPEDTAVYYCAADTGRYRDSNYWGQGTQVTVSS	high polyreactivity
QVQLVESGGGLVQAGGSLRLSCAASGSIFYDKDSGWYRQAPGKERELFAAITSTGGSTYYADSVKGRFTISRDHAKNTVYLQMNSLKPEDTAVYDCNTPTYLYWGFNTYDYWGQGTQFTVSS	low polyreactivity
QVQLVESGGGLVQAGGSLRLSCAASGSIFYDNAMGWYRQAPGKERELVAAITIDGSTYADSVKGRFTISRDNAKYTVYLQMNSLKPEDTAVYYCAAEWDTNFWYDYWGQGTQVTVSS	low polyreactivity
QVQLVESGGGLVQAGGSLRLSCAASGSIFYDNDMGWYRQAPGNERELVAAISWSASDTYYADSVKGRFTISRDNAKNTVYLQMNSLKPDDTAVYYCNAEVYEWYVVYSALDYWGQGTQVTVSS	low polyreactivity
QVQLVESGGGLVQAGGSLRLSCAASGSIFYENDMGWYRQAPGKERELVAAISSGGTTNYADSVKGRFTISRDNAKNTVYLQMNSLKPEDTAVYYCAAEYPSVYYERFDYWGQGTQVTVSS	low polyreactivity
QVQLVESGGGLVQAGGSLRLSCAASGSIFYFHALGWYRQAPGKERELVAAITRRGGSTRYADSVKGRFTISRDNAKNTVYLQMNSLKPEDTAVYYCAAVKEYSYSYKSYDVYYWGQGTQVTVSS	high polyreactivity
QVQLVESGGGLVQAGGSLRLSCAASGSIFYFNAMGWYRQAPGKERELVAAITYSGGSTYYADSVKGRFTISRDNAKNTVYLQMNSLKPEDTAVYYCAAERRTFPLRNFDYWGQGTQVTVLS	low polyreactivity
QVQLVESGGGLVQAGGSLRLSCAASGSIFYFNAMGWYRQAPGKERELVAAITYSGGSTYYADSVKGRFTISRDNAKNTVYLQMNSLKPEDTAVYYCNAQVYYSVRGYPYGYYRNDYWGQGTQVTVSS	low polyreactivity
QVQLVESGGGLVQAGGSLRLSCAASGSIFYFYTMGWYRQAPGKEREFVAAINGIGGSTYYADSVKGRFTISRDNAKNTVYLQMNSLKPEDTAVYYCAADAPWFKRNARKYNYWGQGTQVTVSS	low polyreactivity
QVQLVESGGGLVQAGGSLRLSCAASGSIFYGNTMGWYRQAPGKERELVAAIDYRGDSTYYADSVKGRFTISRDNAKNTVYLQMNSLKPVDTAVYYCAADQTPVGQVYYGTLSIRDYWGQGTQVSVSS	low polyreactivity
QVQLVESGGGLVQAGGSLRLSCAASGSIFYGNTMGWYRQAPGKERELVAAISSGGSTKYADSVKGRFTISRDNAKNTVYLQMNSLKPEDTAVFYCAADLPRYWVTWMDYWGQGTQVTVSS	low polyreactivity
QVQLVESGGGLVQAGGSLRLSCAASGSIFYGNVMGWYRQAPGKERELVAAISWRGGSTYYADSVKGRFTMSRDNAKNTVYLPMNSLKPEDTAVYYCNAERYYYATYGYPIDYWGQGTQVTVSS	low polyreactivity
